Source: patent US20190315855 (published 2019)
Substitutions are numbered along the chain they refer to.

T1: mouse DLL4 ECD (mouse, UniProt Q9JI71)
T1 chain: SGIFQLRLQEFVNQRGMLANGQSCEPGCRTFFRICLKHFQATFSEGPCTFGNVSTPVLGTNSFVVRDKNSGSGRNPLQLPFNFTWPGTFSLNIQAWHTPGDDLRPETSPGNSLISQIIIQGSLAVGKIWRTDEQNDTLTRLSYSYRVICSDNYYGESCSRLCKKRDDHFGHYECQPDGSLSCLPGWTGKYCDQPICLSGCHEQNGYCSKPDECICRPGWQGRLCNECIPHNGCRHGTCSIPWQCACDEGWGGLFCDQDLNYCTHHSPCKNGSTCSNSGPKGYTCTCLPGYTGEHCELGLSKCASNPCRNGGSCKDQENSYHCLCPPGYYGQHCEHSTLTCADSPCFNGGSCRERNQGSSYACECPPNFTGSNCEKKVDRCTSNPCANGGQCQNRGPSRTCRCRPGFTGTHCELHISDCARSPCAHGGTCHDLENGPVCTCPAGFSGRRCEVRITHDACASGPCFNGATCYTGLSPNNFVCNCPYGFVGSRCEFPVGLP

T2: mouse DLL4 (cell surface) (mouse, UniProt Q9JI71)
T2 chain: T1 chain

B1: 14A11 rat mAb (antibody, V domains shown)
VH: EVQLQQSGPELAKPGSSVKISCKASGYTFTNSYISWIKQTTGQGLEYVGYINTGSGGADYNEKFKGKATLTVDKSSRTAFMQLSSLTPGDSAVYYCAKSILLGSTCYFDYWGQGVLVTVSS
VL: NTVLTQSPALAVSLGQRVTISCKASRSVSSPMYSYIYWYQQKPGQQPKLLIYRASTLASGVPARFSGSGSGTDFTLNIDPVEADDIATYFCQQSWSDPFTFGSGTKLEIKR
B2: h1A11.A12 (antibody, V domains shown)
VH: EVQLVESGGGLVQPGGSLRLSCAASGFTFSNFPMAWVRQAPGKGLEWVATISSSDGTTYYRDSVKGRFTISRDNAKNSLYLQMNSLRAEDTAVYYCARGYYNSPFAYWGQGTLVTVSS
VL: DIQMTQSPSSLSASVGDRVTITCRASQDIYYNLAWYQQKPGKSPKLLIFDTSSLADGVPSRFSGSGSGTDFTLTISSLQPEDFATYFCQQYDWYPPTFGQGTKLEIK
B3: h1A11.A7 (antibody, V domains shown)
VH: B2 VH
VL: B2 VL with Y31I, S43A, S53D, F87Y, W93Y
B4: 14G1 rat mAb (antibody, V domains shown)
VH: EVQLQQSGAELAKPGSSVKISCKASGYTFTNYDISWIKQTNGQGLEYLGYINTGSGGIYSNEKFKGKATLTVDKSSNTAFMQLSSLTPEDTAVYYCVREGNNFDHWGQGVKVTVSS
VL: DTVMTQSPASMSTSVGERVTVNCKASQSVGTIVAWFQQKPGQSPKRLIYLATYRHTGVPDRFIGSGFGRDFTLTISNVEAEDLAVYYCLQYGSRPFTFGAGTKLEIKR
B5: h38H12.9 (antibody, V domains shown)
VH: EVQLVESGGGVVQPGRSLRLSCAASGFTFSNYGMYWVRQAPGKGLEWVAFISHGGGITYYRDSVKGRFTISRDNSKNTLYLQMNSLRAEDTAVYYCAALNWELGIDYWGQGTMVTVSS
VL: DIQMTQSPSSLSASVGDRVTITCRASEDIYSNLAWYQQKPGKAPKLLIYAANRLQDGVPSRFSGSGSGTDFTLTISSLQPEDFATYYCLQGSKFPLTFGQGTKLEIKR
B6: h38H12.15 (antibody, V domains shown)
VH: B5 VH with V11L, R16G, V37I, N77S, Y95H
VL: B5 VL with F71Y
B7: h38H12.12 (antibody, V domains shown)
VH: B5 VH
VL: EIVMTQSPATLSVSPGERATLSCRASEDIYSNLAWYQKKPGQSPRLLIYAANRLQDGVPARFSGSGSGTEYTLTISSLQSEDFAVYFCLQGSKFPLTFGQGTKLEIKR
B8: h38H12.16 (antibody, V domains shown)
VH: B5 VH with V11L, R16G, V37I, N77S, Y95H
VL: B7 VL
B9: h38H12.7 (antibody, V domains shown)
VH: B5 VH with V37I, N77S, Y95H
VL: B5 VL with F71Y
B10: h38H12.10 (antibody, V domains shown)
VH: B5 VH
VL: B5 VL with Q38K, A43S, F71Y, Y87F
B11: h38H12.11 (antibody, V domains shown)
VH: B5 VH
VL: B5 VL with F71Y
B12: h38H12.6 (antibody, V domains shown)
VH: B5 VH with V37I, N77S, Y95H
VL: B5 VL with Q38K, A43S, F71Y, Y87F
B13: h38H12.8 (antibody, V domains shown)
VH: B5 VH with V37I, N77S, Y95H
VL: B7 VL
B14: h38H12.5 (antibody, V domains shown)
VH: B5 VH with V37I, N77S, Y95H
VL: B5 VL
B15: h38H12.14 (antibody, V domains shown)
VH: B5 VH with V11L, R16G, V37I, N77S, Y95H
VL: B5 VL with Q38K, A43S, F71Y, Y87F
B16: h38H12.13 (antibody, V domains shown)
VH: B5 VH with V11L, R16G, V37I, N77S, Y95H
VL: B5 VL

The binders below were run against human DLL4 (cell surface) (human) (assay: FACS).
Chain of human DLL4 (cell surface) (human) (chain, as listed by the source): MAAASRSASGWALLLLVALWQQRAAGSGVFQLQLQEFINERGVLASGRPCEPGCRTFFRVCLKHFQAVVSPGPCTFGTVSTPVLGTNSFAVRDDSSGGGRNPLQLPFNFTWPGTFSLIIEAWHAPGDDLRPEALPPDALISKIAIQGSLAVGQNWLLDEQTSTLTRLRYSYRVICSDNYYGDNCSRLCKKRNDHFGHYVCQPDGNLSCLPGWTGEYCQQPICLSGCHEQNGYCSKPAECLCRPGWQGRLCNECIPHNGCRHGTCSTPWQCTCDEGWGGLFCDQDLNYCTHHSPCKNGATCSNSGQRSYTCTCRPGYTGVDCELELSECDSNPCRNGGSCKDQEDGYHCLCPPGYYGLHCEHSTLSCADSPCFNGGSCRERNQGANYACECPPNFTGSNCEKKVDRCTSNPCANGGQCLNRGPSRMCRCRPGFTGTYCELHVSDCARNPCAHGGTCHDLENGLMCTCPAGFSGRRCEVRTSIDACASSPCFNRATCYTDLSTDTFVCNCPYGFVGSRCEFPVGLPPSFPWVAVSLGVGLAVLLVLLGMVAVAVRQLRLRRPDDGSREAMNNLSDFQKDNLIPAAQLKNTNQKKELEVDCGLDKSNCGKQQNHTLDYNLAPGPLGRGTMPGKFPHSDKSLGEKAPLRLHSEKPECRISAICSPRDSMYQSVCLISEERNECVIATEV

Row | Binder | EC50 [nM]
1 | B1 | > 50.9

Biological target: T1, mouse DLL4 ECD
Assay: SPR

Row | Binder | Kd [nM]
2 | B2 | 16
3 | B3 | 13

Biological target: T2, mouse DLL4 (cell surface)
Assay: FACS

Row | Binder | EC50 [nM]
4 | B4 | > 50.9

Each binder was assayed against human DLL4 ECD (human) (assay: competition ELISA).
Chain of human DLL4 ECD (human) (chain, as listed by the source): as above

Row | Binder | IC50 [nM]
5 | B5 | 4.16
6 | B6 | 5.71
7 | B7 | 3.23
8 | B8 | 3.77
9 | B9 | 12.5
10 | B10 | 3.9
11 | B11 | 3.8
12 | B12 | 27
13 | B13 | 8.31
14 | B14 | 14.8
15 | B15 | 5.84
16 | B16 | 5.29
